± gives the uncertainty stated by the source.
Assay: self-splicing fitness, log relative to wild type (ln ratio); higher = more splicing; Tetrahymena group I intron in knt gene, E. coli kanamycin selection, DiMSum; sequences stand for … in CUCUCU…GGAGGGAAAAGUUAUCAGGCAUGCACCUGGUAGCUAGUCUUUAAACCAAUAGAUUGCAUCGGUUUAAAAGGCAAGACCGUCAAAUUGCGGGAAAGGGGUCAACAGCCGUUCAGUACCAAGUCUCAGGGGAAACUUUGAGAUGGCCUUGCAAAGGGUAUGGUAAUAAGCUGACGGACAUGGUCCUAACCACGCAGCCAAGUCCUAAGUCAACAGAUCUUCUGUUGAUAUGGAUGCAGUUCACAGACUAAAUGUCGGUCGGGGAAGAUGUAUUCUUCUCAUAAGAUAUAGUCGGACCUCUCCUUAAUGGGAGCUAGCGGAUGAAGUGAUGCAACACUGGAGCCGCUGGGAACUAAUUUGUAUGCGAAAGUAUAUUGAUUAGUUUUGGAGUACUCGUGGUCG
How it was run: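 Library with all eight P1ex-region intron nucleotides randomised, intron inside the knt kanamycin-resistance gene on pET-22b(+), in E. coli BL21(DE3). Cells grew overnight at 37°C or 30°C on LB agar with or without 25 μg/mL kanamycin (plus 100 μg/mL carbenicillin, 50 μM IPTG, 0.2% rhamnose), in six replicate transformations. Pooled colonies were amplicon-sequenced on Illumina HiSeq 2500. DiMSum fitness is the error-weighted combination of wild-type-normalised replicate fold changes, kanamycin versus none.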

Sequence | self-splicing fitness (ln) (30 °C) | self-splicing fitness (ln) (37 °C)
UCUGAGCAAUAUUACGAGGC | -2.78 ± 0.35 | -2.39 ± 0.26
UAUCAGCAAUAUUACGAAAA | -0.436 ± 0.13 | -0.123 ± 0.17
UCGUAGCAAUAUUACGUAGU | -3.61 ± 0.25 | -1.99 ± 0.13
UCGAAGCAAUAUUACGAUUG | -2.47 ± 0.27 | -1.73 ± 0.23
CCCAAGCAAUAUUACGUGGU | -3.27 ± 0.087 | -1.86 ± 0.084
UGUUAGCAAUAUUACGUCUU | -2.21 ± 0.15 | -1.46 ± 0.13
GCCAAGCAAUAUUACGGCAA | -2.23 ± 0.17 | -1.06 ± 0.15
AUUGAGCAAUAUUACGUUCA | -1.59 ± 0.17 | -0.11 ± 0.17
UCGCAGCAAUAUUACGAAAU | -3.62 ± 0.21 | -2.41 ± 0.24
GAAAAGCAAUAUUACGAUGG | -2.73 ± 0.13 | -0.913 ± 0.12
UCGUAGCAAUAUUACGUGCA | -1.18 ± 0.094 | -1.14 ± 0.12
UUAUAGCAAUAUUACGAUGC | -2.99 ± 0.34 | -1.93 ± 0.32
GGGUAGCAAUAUUACGGGAG | -2.54 ± 0.28 | -1.44 ± 0.25
AGUGAGCAAUAUUACGACUC | -3.04 ± 0.37 | –
CCGGAGCAAUAUUACGUGGC | -3.77 ± 0.39 | –
ACGCAGCAAUAUUACGUGCC | -1.7 ± 0.11 | -0.959 ± 0.12
CCUUAGCAAUAUUACGCCAU | -2.87 ± 0.48 | -1.57 ± 0.29
CACUAGCAAUAUUACGCAUU | -3.06 ± 0.23 | -2.17 ± 0.17
CCCCAGCAAUAUUACGAGAU | -3.78 ± 0.17 | -2.3 ± 0.2
AACGAGCAAUAUUACGGCUC | -2.49 ± 0.44 | –
UCCUAGCAAUAUUACGCCCA | -1.65 ± 0.34 | -0.0863 ± 0.31
UCAAAGCAAUAUUACGUAGG | -1.07 ± 0.072 | -0.463 ± 0.096
GCGGAGCAAUAUUACGAACA | -2.71 ± 0.45 | -2.78 ± 0.43
GAGUAGCAAUAUUACGAGAU | -4.02 ± 0.29 | -2.51 ± 0.28
UCUCAGCAAUAUUACGAAUA | -2.57 ± 0.21 | -0.0366 ± 0.13
CUGCAGCAAUAUUACGGUCC | -3.4 ± 0.23 | -2.99 ± 0.37

Sequence | self-splicing fitness (ln) (30 °C) | self-splicing fitness (ln) (37 °C)
GGUUAGCAAUAUUACGGUCG | -0.323 ± 0.13 | -0.0539 ± 0.18
UGCAAGCAAUAUUACGUGGA | -2.88 ± 0.17 | -1.36 ± 0.11
ACUCAGCAAUAUUACGUUGA | -2.37 ± 0.15 | -0.607 ± 0.14
UGUUAGCAAUAUUACGGGUA | -0.939 ± 0.15 | -1.4 ± 0.16
AUGUAGCAAUAUUACGCAAC | -2.69 ± 0.45 | -0.382 ± 0.27
GAUUAGCAAUAUUACGGCGU | -0.737 ± 0.068 | -0.796 ± 0.062
CCUUAGCAAUAUUACGCAAU | -3.51 ± 0.23 | -1.47 ± 0.23
GCCUAGCAAUAUUACGGUAC | -2.66 ± 0.15 | -0.822 ± 0.13
CCGUAGCAAUAUUACGCAUA | -2.31 ± 0.19 | -2.12 ± 0.33
UGAAAGCAAUAUUACGACGU | -1.06 ± 0.065 | -0.131 ± 0.084
ACAAAGCAAUAUUACGCGCA | -0.72 ± 0.067 | -0.569 ± 0.078
UCAGAGCAAUAUUACGGGCA | -3.11 ± 0.29 | -1.77 ± 0.17
AUCCAGCAAUAUUACGGCGC | -0.203 ± 0.1 | -0.114 ± 0.14
UGGGAGCAAUAUUACGUACA | -1.26 ± 0.22 | -0.889 ± 0.42
CCCUAGCAAUAUUACGGGUA | -2.41 ± 0.14 | -3.01 ± 0.19
GUUUAGCAAUAUUACGAAUC | – | -0.202 ± 0.45
GGACAGCAAUAUUACGCUUU | -1.39 ± 0.065 | -0.538 ± 0.087
GAUCAGCAAUAUUACGCACA | -0.0131 ± 0.12 | 0.404 ± 0.13
AGACAGCAAUAUUACGCGGA | -2.87 ± 0.14 | -1.58 ± 0.12
GUUGAGCAAUAUUACGGUUG | -3.56 ± 0.35 | -1.38 ± 0.38
UCCCAGCAAUAUUACGGUUC | -2.43 ± 0.11 | -1.8 ± 0.14
UCUCAGCAAUAUUACGGGUC | -4.37 ± 0.34 | -1.52 ± 0.16
GGCCAGCAAUAUUACGCCCA | -2.11 ± 0.35 | -0.809 ± 0.25
UAUGAGCAAUAUUACGGUAU | -4.03 ± 0.42 | -1.06 ± 0.24
ACACAGCAAUAUUACGUUGA | -1.91 ± 0.091 | -1.92 ± 0.11
AGGUAGCAAUAUUACGGACA | -0.694 ± 0.017 | -0.397 ± 0.034

Sequence | self-splicing fitness (ln) (30 °C) | self-splicing fitness (ln) (37 °C)
CGCGAGCAAUAUUACGCGCA | – | -2.91 ± 0.2
GGACAGCAAUAUUACGCCCU | -3.25 ± 0.2 | -0.306 ± 0.14
CUUAAGCAAUAUUACGAUAC | -2.53 ± 0.36 | -2.33 ± 0.5
CGCUAGCAAUAUUACGAGCG | -4.02 ± 0.39 | -2.69 ± 0.39
AUGCAGCAAUAUUACGUGAU | -1.76 ± 0.067 | -0.91 ± 0.08
ACAAAGCAAUAUUACGCCAU | -3.96 ± 0.2 | -2.24 ± 0.14
AGAAAGCAAUAUUACGCAGG | -2.89 ± 0.15 | -1.4 ± 0.15
AAAUAGCAAUAUUACGCUGA | -2.31 ± 0.16 | -1.29 ± 0.18
UAUAAGCAAUAUUACGAUUA | -0.327 ± 0.073 | 0.291 ± 0.098
ACGAAGCAAUAUUACGUUCG | -1.3 ± 0.083 | -0.906 ± 0.11
AAAGAGCAAUAUUACGAUAA | -3.45 ± 0.18 | -2.2 ± 0.22
GGCAAGCAAUAUUACGUCUC | -0.496 ± 0.087 | 0.539 ± 0.12
CGUUAGCAAUAUUACGGUCG | -1.03 ± 0.11 | 0.369 ± 0.12
AUUUAGCAAUAUUACGUGGA | -3.25 ± 0.21 | -2.04 ± 0.16
CGGCAGCAAUAUUACGUGGU | -4.44 ± 0.25 | -1.93 ± 0.12
UUAAAGCAAUAUUACGACCU | -0.0595 ± 0.074 | 0.121 ± 0.1
AAUCAGCAAUAUUACGGUUU | -1.35 ± 0.056 | -0.0658 ± 0.064
AUAGAGCAAUAUUACGUACG | -2.22 ± 0.2 | -1.53 ± 0.23
CAAGAGCAAUAUUACGCGCU | -3.72 ± 0.4 | -2.34 ± 0.33
CAGAAGCAAUAUUACGGCAU | -3.35 ± 0.19 | -1.95 ± 0.15
UCGAAGCAAUAUUACGAUCU | -2.67 ± 0.21 | -2.44 ± 0.27
UCAGAGCAAUAUUACGGCGA | -0.324 ± 0.072 | -0.417 ± 0.076
CCUUAGCAAUAUUACGCGUG | -2.33 ± 0.12 | -2.61 ± 0.12
AAUAAGCAAUAUUACGGGCC | -2.8 ± 0.39 | -2.21 ± 0.31
